Target: T1, EPRS (glutamyl-prolyl tRNA synthetase) (UniProt P07814 1-1512)
T1 construct: Endogenous protein in LC319 cell lysate, identified by MALDI-TOF mass spectrometry as a 180-kDa band; also called 180-kDa band
Test: tandem immunoprecipitation (anti-FLAG M2, then anti-HA) from transfected LC319 lysate, silver-stained SDS-PAGE, MALDI-TOF MS
Experimental: Cell extracts from lung-cancer cell line LC319 transfected with the plasmids expressing N-terminal FLAG-tagged and C-terminal HA-tagged-pCAGGS-IMS-E21 (URLC8) vector or mock vector (control) were pre-cleared by incubation at 4° C. for 1 hour with 100 μL of protein G-agarose beads in a final volume of 2 ml of IP-buffer (0.5% NP-40, 50 mM Tris-HCl, 150 mM NaCl) in the presence of proteinase inhibitor. After centrifugation at 1000 rpm for 5 min at 4° C., the supernatant was incubated at 4° C. with anti-Flag M2 agarose for 2 hours. The beads were then collected by centrifugation at 5000 rpm for 2 min and washed six times with 1 ml of each immunoprecipitation buffer. Then, the washed beads were eluted by Flag-peptide (Sigma-Aldrich Co., St. Louis, Mo.). The elution was incubated at 4° C. with anti-HA agarose for 2 hours. The washed beads were resuspended in 50 μL of Laemmli sample buffer and boiled for 5 min, and the proteins were separated by 5-10% SDS PAGE gels (BIO RAD). After electrophoresis, the gels were stained with silver. Protein bands specifically found in IMS-E21 (URLC8)- transfected extracts were excised and served for matrix-assisted laser desorption/ionization-time of flight mass spectrometry (MALDI-TOF-MS) analysis (AXIMA-CFR plus, SHIMADZU BIOTECH, Kyoto, Japan). […]

T1 sequence (P07814 whole entry): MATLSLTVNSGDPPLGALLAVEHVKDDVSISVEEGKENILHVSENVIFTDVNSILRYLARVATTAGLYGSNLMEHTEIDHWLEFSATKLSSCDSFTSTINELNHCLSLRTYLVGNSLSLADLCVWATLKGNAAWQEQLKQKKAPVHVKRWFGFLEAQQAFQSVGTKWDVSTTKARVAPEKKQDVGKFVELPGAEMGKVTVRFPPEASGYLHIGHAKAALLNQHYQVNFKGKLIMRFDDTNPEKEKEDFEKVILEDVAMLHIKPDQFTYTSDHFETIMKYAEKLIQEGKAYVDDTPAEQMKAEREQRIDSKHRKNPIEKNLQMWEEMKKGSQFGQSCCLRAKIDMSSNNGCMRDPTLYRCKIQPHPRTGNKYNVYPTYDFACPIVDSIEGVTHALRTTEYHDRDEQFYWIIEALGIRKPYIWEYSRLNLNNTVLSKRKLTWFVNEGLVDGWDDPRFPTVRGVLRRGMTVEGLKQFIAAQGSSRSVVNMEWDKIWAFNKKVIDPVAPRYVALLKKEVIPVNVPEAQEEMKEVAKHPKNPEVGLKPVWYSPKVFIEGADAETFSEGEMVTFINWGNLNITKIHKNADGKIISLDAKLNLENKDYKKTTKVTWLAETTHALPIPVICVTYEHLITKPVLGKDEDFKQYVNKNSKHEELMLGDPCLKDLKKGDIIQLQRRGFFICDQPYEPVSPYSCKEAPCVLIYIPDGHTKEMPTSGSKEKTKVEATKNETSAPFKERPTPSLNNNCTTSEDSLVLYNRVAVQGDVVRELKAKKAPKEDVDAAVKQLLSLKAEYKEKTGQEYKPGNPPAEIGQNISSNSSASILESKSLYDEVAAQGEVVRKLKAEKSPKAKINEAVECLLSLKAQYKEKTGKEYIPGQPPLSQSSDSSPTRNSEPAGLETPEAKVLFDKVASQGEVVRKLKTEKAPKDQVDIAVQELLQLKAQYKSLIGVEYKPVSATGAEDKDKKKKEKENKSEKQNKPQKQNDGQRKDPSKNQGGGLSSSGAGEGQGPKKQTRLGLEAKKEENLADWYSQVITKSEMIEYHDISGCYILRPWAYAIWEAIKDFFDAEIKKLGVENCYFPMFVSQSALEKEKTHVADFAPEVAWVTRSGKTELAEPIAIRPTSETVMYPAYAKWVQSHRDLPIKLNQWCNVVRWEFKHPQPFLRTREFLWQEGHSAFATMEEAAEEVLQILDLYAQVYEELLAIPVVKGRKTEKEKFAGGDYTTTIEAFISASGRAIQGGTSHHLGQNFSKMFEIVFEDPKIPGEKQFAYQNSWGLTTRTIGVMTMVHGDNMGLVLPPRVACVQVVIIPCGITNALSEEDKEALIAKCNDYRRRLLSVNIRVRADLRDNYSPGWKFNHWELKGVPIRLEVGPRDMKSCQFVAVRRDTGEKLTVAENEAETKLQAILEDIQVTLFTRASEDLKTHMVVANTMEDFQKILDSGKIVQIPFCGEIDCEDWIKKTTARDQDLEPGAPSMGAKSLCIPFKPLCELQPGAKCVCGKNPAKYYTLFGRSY

binding result: binds
B1: N-terminal FLAG-tagged and C-terminal HA-tagged IMS-E21 (URLC8) (enzyme)
chain: MILNSLSLCYHNKLILAPMVRVGTLPMRLLALDYGADIVYCEELIDLKMIQCKRVVNEVLSTVDFVAPDDRVVFRTCEREQNRVVFQMGTSDAERALAVARLVENDVAGIDVNMGCPKQYSTKGGMGAALLSDPDKIEKILSTLVKGTRRPVTCKIRILPSLEDTLSLVKRIERTGIAAIAVHGRKREERPQHPVSCEVIKAIADTLSIPVIANGGSHDHIQQYSDIEDFRQATAASSVMVARAAMWNPSIFLKEGLRPLEEVMQKYIRYAVQYDNHYTNTKYCLCQMLREQLESPQGRLLHAAQSSREICEAFGLGAFYEETTQELDAQQARLSAKTSEQTGEPAEDTSGVIKMAVKFDRRAYPAQITPKMCLLEWCRREKLAQPVYETVQRPLDRLFSSIVTVAEQKYQSTLWDKSKKLAEQAAAIVCLRSQGLPEGRLGEESPSLHKRKREAPDQDPGGPRAQELAQPGDLCKKPFVALGSGEESPLEGW
notes: Expressed from a pCAGGS vector in transfected LC319 cells; also called FLAG-tagged and HA-tagged-pCAGGS-IMS-E21; not shown: N-terminal FLAG tag; C-terminal HA tag
